Data published in patent US5663064, “Ribozymes with RNA protein binding site” (University of Vermont).

Key:
R17 coat protein (R17cp) [1] = target: T1, R17 coat protein (R17cp) (bacteriophage R17, UniProt P69170 P69170:1-129); experiment: filter; also gel shift; TMS or TMK buffer, 25 or 37 C; Kd said to agree with earlier studies but value not given; conditions: chain copies: 2; hairpin with bulged A
Method: The reaction was initiated by adding R17 coat protein at various concentrations (0.01 nM to 1 μM). After at least 20 minutes of incubation at the desired temperature, 450 μl of the reaction mixture was filtered through pre-soaked nitrocellulose filter (Millipore-HAWP 024–0,45 μM). The amount of complex retained by the filter was determined by liquid scintillation counting. The amount of input RNA was determined by spotting a 20 μl aliquot of the reaction mixture on a filter. The fraction bound by the filter was plotted as a function of protein concentration. As previously described (Carey et al., supra; Schneider et al., 1992 J. Mol. Biol. 228, 862), the maximum amount of fraction complexed varied between 40 and 100% depending on the RNA preparation. Results were normalized to 100% of retention at saturation for purposes of calculations and to compare different experiments. […] Dissociation constant (Kd) values were then obtained from a non-linear least-square fit using sigmaplot software (Jandel Scientific). Standard error was calculated from the fit of the observed curve to the theoretical one (reported by the sigmaplot software).
A filter binding assay (Carey, et al., 1983 Biochemistry 22, 2601) is used to confirm the results from gel-shift assay described above. Referring to FIG. 9, the R17cp binds to HpR17 as well as it binds to its genuine binding site (R17bs). […]

R17 coat protein (R17cp) [2] = target: T1, R17 coat protein (R17cp); experiment: filter; null mutant negative control; no specific complex in gel shift; conditions: chain copies: 2; hairpin
Method: Association constants were determined by filter-binding assays (Carey et al., 1983 Biochemistry 22, 2601). Trace amount of labeled RNA (15–32 fmoles) was heat denatured and renatured in 500 μl of T.M.S buffer (40 mM Tris-HCl pH 8, 12 mM MgCl_2 and 2 mM spermidine) or TMK buffer (40 mM Tris-Acetate pH 8, 10 mM Mg.Acetate, 80 mM KCl). The reaction was initiated by adding R17 coat protein at various concentrations (0.01 nM to 1 μM). After at least 20 minutes of incubation at the desired temperature, 450 μl of the reaction mixture was filtered through pre-soaked nitrocellulose filter (Millipore-HAWP 024–0,45 μM). The amount of complex retained by the filter was determined by liquid scintillation counting. The amount of input RNA was determined by spotting a 20 μl aliquot of the reaction mixture on a filter. The fraction bound by the filter was plotted as a function of protein concentration. As previously described (Carey et al., supra; Schneider et al., 1992 J. Mol. Biol. 228, 862), the maximum amount of fraction complexed varied between 40 and 100% depending on the RNA preparation. Results were normalized to 100% of retention at saturation for purposes of calculations and to compare different experiments. […] Standard error was calculated from the fit of the observed curve to the theoretical one (reported by the sigmaplot software). […]

T1 sequence (P69170 whole entry, one chain of several): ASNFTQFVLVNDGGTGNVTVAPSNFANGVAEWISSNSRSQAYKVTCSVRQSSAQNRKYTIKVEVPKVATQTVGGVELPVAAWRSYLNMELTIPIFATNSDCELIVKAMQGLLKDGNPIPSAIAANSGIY

Binder | binding result (R17 coat protein (R17cp) [1]) | binding result (R17 coat protein (R17cp) [2])
GAAACAUGAGGAUCACCCAUGUUU (ssRNA) [R17bs] | binds | 
GAAACAUGGGAUCACCCAUGUUU (ssRNA) [R17deltaA8] |  | no binding
